Measured values from US20260125472A1 (HEFEI TG IMMUNOPHARMA, published 2026).

What was measured:
[1] = target: T1, CD3E&D protein (UniProt P04234 22-105); experiment: ELISA, coated CD3E&D protein, OD450
T1 construct: Purchased from Acro; also called CD3 E&D antigens; CD3E&D antigen protein
Text: In this example, the binding properties of the CD3×Trop2 and CD3×PDL1 bispecific antibody (the production method and the amino acid sequences of the heavy and light chains were shown in Example 1) were detected by using ELISA. The CD3E&D, Trop2, or PDL1 protein was coated onto 96-well plates by inventors, and the strength of the signal after the addition of the antibody was used to determine the binding properties of the antibody and the corresponding protein.
(1) CD3E&D protein (purchased from Acro) was diluted to 2 μg/ml with PBS buffer, added to a 96-well plate at a volume of 100 μL/well, and placed at 4° C. overnight. The PBS buffer in the 96-well plate was aspirated, and the plate was washed 6 times with PBST (pH 7.2 PBS containing 0.1% Tween 20) buffer. Then, 200 μL/well PBS/10% BSA was added and incubated at 37° C. for 2 h for blocking. The blocking solution was removed, and the plate was washed 6 times with PBST. […] The absorbance was read at 450 nm using a microplate reader.

[2] = target: T2, CD3 on CD8 T cells (Homo sapiens (Human), UniProt P07766 23-207); experiment: flow cytometry, CD8 T cells in PBMCs, MFI [panel B]
T2 construct: Native CD3 complex on CD8 T cells among PBMCs; also called T cells (PBMCs gated with anti-human CD8 antibody)
T2 sequence (P07766 23-207 limits assumed): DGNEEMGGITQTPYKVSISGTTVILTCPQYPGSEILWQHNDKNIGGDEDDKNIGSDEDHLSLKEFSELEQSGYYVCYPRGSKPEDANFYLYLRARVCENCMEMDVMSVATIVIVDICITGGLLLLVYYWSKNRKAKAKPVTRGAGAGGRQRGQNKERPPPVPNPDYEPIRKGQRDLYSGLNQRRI
Description: (1) PBMCs were diluted to 2×10⁶/ml with PBS and added to a 1.5 ml EP tube at 100 μl/tube, goat serum was added thereto at 10 μl/tube. The cells were blocked at 4° C. for 30 min. The serially diluted bispecific antibodies, Cross3×Trop2, Cross303×Trop2, Cross307×Trop2, Cross308×Trop2, Cross309×Trop2, Cross310×Trop2, Cross311×Trop2, Cross312×Trop2, Cross313×Trop2, Cross314×Trop2, Cross316×Trop2, Cross317×Trop2, Cross318×Trop2, Cross323×Trop2, Cross325×Trop2, Cross326×Trop2, Cross3×PDL1, Cross313×PDL1, Cross316×PDL1, Cross325×PDL1, and control hIgG1LALA (purchased from Bio-Tech) were added and incubated at 4° C. for 30 min. 1 ml of PBS was added to the EP tube, followed by centrifugation at 3500 rpm for 5 min at 4° C. The supernatant was discarded, and the system was washed again with PBS. After centrifugation, the supernatant was discarded, and the cells were resuspended with PBS at 100 μl/tube. 1 μl/tube Alexa-647-labeled goat anti-human IgG secondary antibody (purchased from Jackson lab) and 0.5 μl/tube PerCP-Cy5.5-labeled anti-human CD8 antibody were added and incubated at 4° C. in the dark for 30 min. The cells were washed twice with PBS. After centrifugation, the supernatant was discarded. The cells were resuspended with 200 μl/tube of PBS and assay is performed by flow cytometry.

T1 sequence (chain, as listed by the source limits assumed, chain 1 of 2): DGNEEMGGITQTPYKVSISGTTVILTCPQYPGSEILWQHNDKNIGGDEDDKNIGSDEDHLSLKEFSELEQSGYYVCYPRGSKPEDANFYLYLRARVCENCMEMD
T1 sequence (P04234 22-105 limits assumed, chain 2 of 2): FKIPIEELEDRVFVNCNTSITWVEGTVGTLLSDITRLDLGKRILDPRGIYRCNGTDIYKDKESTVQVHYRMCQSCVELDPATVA

B1: Cross311×Trop2 (bispecific antibody)
scFv: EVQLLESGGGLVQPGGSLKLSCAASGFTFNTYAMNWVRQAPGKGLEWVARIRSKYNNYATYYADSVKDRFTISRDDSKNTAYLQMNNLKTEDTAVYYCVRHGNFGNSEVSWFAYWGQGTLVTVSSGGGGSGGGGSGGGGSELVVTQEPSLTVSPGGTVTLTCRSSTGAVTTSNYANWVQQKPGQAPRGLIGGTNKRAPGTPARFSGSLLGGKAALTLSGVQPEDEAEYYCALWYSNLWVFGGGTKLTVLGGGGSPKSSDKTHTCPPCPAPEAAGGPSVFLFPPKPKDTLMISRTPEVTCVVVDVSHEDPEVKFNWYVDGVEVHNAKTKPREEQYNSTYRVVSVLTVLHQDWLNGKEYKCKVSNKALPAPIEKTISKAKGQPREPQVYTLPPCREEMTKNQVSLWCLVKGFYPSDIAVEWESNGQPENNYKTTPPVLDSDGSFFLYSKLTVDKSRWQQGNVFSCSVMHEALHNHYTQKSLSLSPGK
heavy: QVQLQQSGSELKKPGASVKVSCKASGYTFTNYGMNWVKQAPGQGLKWMGWINTYTGEPTYTDDFKGRFAFSLDTSVSTAYLQISSLKADDTAVYFCARGGFGSSYWYFDVWGQGSLVTVSSASTKGPSVFPLAPSSKSTSGGTAALGCLVKDYFPEPVTVSWNSGALTSGVHTFPAVLQSSGLYSLSSVVTVPSSSLGTQTYICNVNHKPSNTKVDKKVEPKSSDKTHTCPPCPAPEAAGGPSVFLFPPKPKDTLMISRTPEVTCVVVDVSHEDPEVKFNWYVDGVEVHNAKTKPREEQYNSTYRVVSVLTVLHQDWLNGKEYKCKVSNKALPAPIEKTISKAKGQPREPQVCTLPPSREEMTKNQVSLSCAVKGFYPSDIAVEWESNGQPENNYKTTPPVLDSDGSFFLVSKLTVDKSRWQQGNVFSCSVMHEALHNHYTQKSLSLSPGK
light: DIQLTQSPSSLSASVGDRVSITCKASQDVSIAVAWYQQKPGKAPKLLIYSASYRYTGVPDRFSGSGSGTDFTLTISSLQPEDFAVYYCQQHYITPLTFGAGTKVEIKRTVAAPSVFIFPPSDEQLKSGTASVVCLLNNFYPREAKVQWKVDNALQSGNSQESVTEQDSKDSTYSLSSTLTLSKADYEKHKVYACEVTHQGLSSPVTKSFNRGEC
[1]
  EC50 (read off the curve): ~40 ng/mL
[2]
  EC50 (read off the curve): ~4 µg/mL
